This is an account of results in US20260265381A1 (Hoffmann-La Roche, published 2026).

Test [1] addresses T1, recombinant single-chain HLA-G monomer/human HLA-G β2M MHC class I complex (human).
T1 construct: also called wt-HLA-G complex; wt-HLA-G antigen
Description: SPR single cycle kinetics (Biacore T200, 25 C); antibody captured via Fc on CM3 chip, HLA-G complex as analyte. A general note: SPR reads the build-up and loss of mass on a sensor chip optically.

Test [2] deals with T2, human HLA-G expressed on cells (JEG3 cells, natural; SKOV3 cells transfected with recombinant HLA-G) (human, UniProt P17693 25-338).
T2 construct: also called SKOV3 HLA-G
In words: flow cytometry on JEG3 cells (natural HLA-G); antibody at 2 µg/ml per legend paragraph 51 (10 µg/ml per paragraph 491); detection with goat anti-human IgG (H+L) Alexa 488. For orientation: Flow cytometry measures light scatter and fluorescence of single cells or particles in a stream.

The target in test [3] is T1, recombinant single-chain HLA-G …. Description: SPR relative active concentration; after 13 days PBS pH 7.4 at 37 C.
Test [4] deals with T2, human HLA-G expressed on cells (JEG3 …). Description: flow cytometry on SKOV3 HLA-G cells (SKOV3 transfected with HLA-G); antibody at 2 µg/ml per legend paragraph 51 (10 µg/ml per paragraph 491); detection with goat anti-human IgG (H+L) Alexa 488.
Test [5] addresses T3, rat RT1 (SEQ ID NO: 43) (rat).
T3 construct: Recombinant single-chain peptide-MHC complex construct (peptide, β2M, MHC class I molecule); also called rat RT1A β2M MHC class I complex
T3 chain: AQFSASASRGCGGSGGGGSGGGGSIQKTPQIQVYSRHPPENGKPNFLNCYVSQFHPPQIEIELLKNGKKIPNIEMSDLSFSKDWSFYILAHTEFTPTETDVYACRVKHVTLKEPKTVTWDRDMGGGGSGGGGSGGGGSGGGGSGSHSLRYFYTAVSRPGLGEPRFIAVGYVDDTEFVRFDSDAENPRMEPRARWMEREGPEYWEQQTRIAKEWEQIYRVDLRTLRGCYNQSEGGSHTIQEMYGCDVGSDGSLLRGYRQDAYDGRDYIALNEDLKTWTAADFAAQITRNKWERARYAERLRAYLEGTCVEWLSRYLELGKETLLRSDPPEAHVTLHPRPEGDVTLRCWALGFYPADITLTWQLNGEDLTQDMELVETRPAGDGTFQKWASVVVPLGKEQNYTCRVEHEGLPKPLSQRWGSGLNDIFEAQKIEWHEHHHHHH
Description: SPR (Biacore T200, 25 C); antibody immobilized on CM3 chip, single-chain peptide-MHC as analyte.

For test [6], the target named is T4, human HLA-G β2M MHC class I complex, wherein the HLA-G specific amino acids have been replaced by HLA-A … (human).
T4 construct: Recombinant single-chain peptide-MHC complex construct; also called HLA-A consensus on HLA-G frame; degrafted HLA-G
The test is described as above.

Test [7] concerns the target T1, recombinant single-chain HLA-G …. Description: SPR multi cycle kinetics (Biacore T200, 25 C); antibody captured via Fc on CM3 chip, HLA-G complex as analyte.
The target is the same in test [8]. Description: SPR relative active concentration; Ref. (frozen at -80 C).
The target is the same in test [9]. In words: SPR relative active concentration; after 13 days His pH 6.0 at 40 C.
In test [10] the target is T2, human HLA-G expressed on cells (JEG3 …). Description: flow cytometry; JEG3 cells pre-incubated with antibody, competitor ILT2-c-Myc-Fc at 10 ug/ml.
The target is the same in test [11]. Description: flow cytometry, cell binding on SKOV3 HLA-G cells.
Test [12] has the same target. Description: cell-based or functional assay.
Test [13] has the same target. In words: cell-based or functional assay. This is another data set of the same source.
The target in test [14] is T5, human CD3 expressed on cells (Jurkat NFAT reporter cells; human T cells isolated from PBMCs) (human, UniProt P07766 23-207).
T5 construct: on cells it is part of the CD3/TCR complex; also called CD3 on Jurkat cells; CD3 expressed on T-cells
Description: flow cytometry on human T cells isolated from PBMCs; detection with Alexa Fluor 488 anti-human IgG.

Test [15] deals with T2, human HLA-G expressed on cells (JEG3 …). In words: flow cytometry, cell binding on JEG3 cells.

Changes are numbered by the printed parent chain. Names may count otherwise.

T5 sequence (P07766 23-207 limits assumed): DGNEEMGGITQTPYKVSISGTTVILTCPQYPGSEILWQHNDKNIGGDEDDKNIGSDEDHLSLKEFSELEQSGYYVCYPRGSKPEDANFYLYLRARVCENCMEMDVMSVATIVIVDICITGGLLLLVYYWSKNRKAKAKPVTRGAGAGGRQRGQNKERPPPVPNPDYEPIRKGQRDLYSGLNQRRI

B1: HLA-G-0090 (antibody, IgG1, V domains shown)
VH: QVQLQQSGPGLLKPSQTLSLTCAISGDSVSSNRAAWNWIRQSPSRGLEWLGRTYYRSKWYNDYAVSVQGRITLIPDTSKNQFSLRLNSVTPEDTAVYYCASVRAVAPFDYWGQGVLVTVSS
VL: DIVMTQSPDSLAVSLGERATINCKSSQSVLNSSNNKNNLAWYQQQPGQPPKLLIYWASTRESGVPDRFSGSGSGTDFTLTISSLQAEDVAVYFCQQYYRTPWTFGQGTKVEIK
modifications: N-glycosylation motif NSS in CDR-L1 at light chain positions 31 to 33 (Fab glycosylation detected)
notes: the parental antibody was expressed alongside them; also called parental antibody
Consider B1, for which the Kd – broadly, the constant that tells how readily two partners part at equilibrium – was found to be 1.2 nM in test [1] and 1.4 nM in test [7]. Besides, the results for the koff in test [1] and in [7] were 0.00138 s⁻¹ and 0.00178 s⁻¹, respectively. Moreover, the kon (in general, the second-order rate constant of association) in test [1] turned out to be 1.19e+06 M⁻¹ s⁻¹; in [7], 1.3e+06 M⁻¹ s⁻¹. The t½ – broadly, the time needed for the level to fall by half in the phase considered – in [1] is 8.35 min; in test [7], 6.5 min. In addition, the MFI came out at 6060 in [2] and 13100 in test [4]. The “relative HLA-G binding signal compared to Ref (as 100%), by SPR RAC” value in test [3] was determined as 96%; in [8], 100%; in test [9], 99%. Also, the binding result in test [5] and in [6] was “no binding” each time. For the same molecule, the “inhibition of ILT2 binding to Jeg3 cells” value in [10] was 72%.

B2: HLA-G-0090-VL-N31T (antibody, IgG1, V domains shown)
VH: B1 VH
VL: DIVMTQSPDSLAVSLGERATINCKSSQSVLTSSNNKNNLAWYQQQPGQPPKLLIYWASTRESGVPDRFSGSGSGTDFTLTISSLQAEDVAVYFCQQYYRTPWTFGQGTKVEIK
notes: also called HLA-G-0090-N31T
In the case of B2, in test [1], the Kd was determined as 2.3 nM, the koff (usually the rate constant with which the complex falls apart) came out at 0.000769 s⁻¹, the kon turned out to be 342000 M⁻¹ s⁻¹ and the t½ was determined as 15 min.

B3: HLA-G-0090-VL-N31Y (antibody, IgG1, V domains shown)
VH: B1 VH
VL: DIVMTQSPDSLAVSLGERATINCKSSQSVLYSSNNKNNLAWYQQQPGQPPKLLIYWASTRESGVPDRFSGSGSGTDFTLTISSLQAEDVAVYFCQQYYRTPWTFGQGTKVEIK
notes: also called HLA-G-0090-N31Y
Regarding B3, in [1], the Kd is 2 nM, the off-rate constant (koff) was found to be 0.00107 s⁻¹, the kon was 549000 M⁻¹ s⁻¹ and the t½ amounted to 10.8 min.

B4: HLA-G-0090-VL-N31Q (antibody, IgG1, V domains shown)
VH: B1 VH
VL: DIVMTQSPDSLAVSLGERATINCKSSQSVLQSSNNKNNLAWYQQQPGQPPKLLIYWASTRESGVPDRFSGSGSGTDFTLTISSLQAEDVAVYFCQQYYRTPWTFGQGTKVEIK
notes: also called HLA-G-0090-N31Q
In the case of B4, in test [1], the Kd came to 2 nM, the koff was 0.00373 s⁻¹, the kon is 1.91e+06 M⁻¹ s⁻¹ and the t½ is 3.1 min.

B5: HLA-G-0090-VL-N31D (antibody, IgG1, V domains shown)
VH: B1 VH
VL: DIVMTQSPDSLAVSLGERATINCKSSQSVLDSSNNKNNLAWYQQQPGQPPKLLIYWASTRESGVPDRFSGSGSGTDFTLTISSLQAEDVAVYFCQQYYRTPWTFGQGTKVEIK
notes: also called HLA-G-0090-N31D
As to B5, in [1], the Kd came to 20.2 nM, the koff stood at 0.00391 s⁻¹, the kon worked out at 194000 M⁻¹ s⁻¹ and the t½ is 2.96 min.

B6: HLA-G-0090-VL-N31S (antibody, IgG1, V domains shown)
VH: B1 VH
VL: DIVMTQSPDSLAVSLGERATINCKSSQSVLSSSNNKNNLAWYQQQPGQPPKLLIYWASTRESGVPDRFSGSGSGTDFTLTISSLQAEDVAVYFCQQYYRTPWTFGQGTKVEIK
notes: also called HLA-G-0090-N31S
For B6, in [1], the Kd turned out to be 2.4 nM, the koff was found to be 0.000922 s⁻¹, the kon is 383000 M⁻¹ s⁻¹ and the t½ stood at 12.5 min.

B7: HLA-G-0090-VL-N31L (antibody, IgG1, V domains shown)
VH: B1 VH
VL: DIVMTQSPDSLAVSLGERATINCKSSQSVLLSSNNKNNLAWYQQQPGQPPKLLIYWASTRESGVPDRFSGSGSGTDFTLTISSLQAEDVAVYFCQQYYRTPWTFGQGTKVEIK
notes: also called HLA-G-0090-N31L
For B7, in test [1], the Kd was found to be 1.7 nM, the koff is 0.00871 s⁻¹, the kon stood at 5.28e+06 M⁻¹ s⁻¹ and the t½ amounted to 1.33 min.

B8: HLA-G-0090-VL-N31Y-N38Y (antibody, IgG1, V domains shown)
VH: B1 VH
VL: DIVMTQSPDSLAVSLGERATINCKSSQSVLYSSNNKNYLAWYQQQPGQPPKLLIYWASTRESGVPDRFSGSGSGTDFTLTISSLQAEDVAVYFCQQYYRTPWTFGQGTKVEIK
notes: also called HLA-G-0090-VL-N31Y-N38Y-GL; HLA-G-0090-N31Y-N38Y
Take B8: in test [1], the Kd is 23.6 nM and the t½ is 0 min.

B9: P1AF7977 (HLA-G-0090-VL-S32P/CD3 P035-093 (P035)) (bispecific antibody, human IgG1, kappa, L234A L235A)
light 1: EVQLLESGGGLVQPGGSLRLSCAASGFTFSSYAMNWVRQAPGKGLEWVSRIRSKYNNYATYYADSVKGRFTISRDDSKNTLYLQMNSLRAEDTAVYYCVRASNFPASYVSYFAYWGQGTLVTVSSASVAAPSVFIFPPSDEQLKSGTASVVCLLNNFYPREAKVQWKVDNALQSGNSQESVTEQDSKDSTYSLSSTLTLSKADYEKHKVYACEVTHQGLSSPVTKSFNRGEC
light 2: not shown
heavy 1: QVQLQQSGPGLLKPSQTLSLTCAISGDSVSSNRAAWNWIRQSPSRGLEWLGRTYYRSKWYNDYAVSVQGRITLIPDTSKNQFSLRLNSVTPEDTAVYYCASVRAVAPFDYWGQGVLVTVSSASTKGPSVFPLAPSSKSTSGGTAALGCLVEDYFPEPVTVSWNSGALTSGVHTFPAVLQSSGLYSLSSVVTVPSSSLGTQTYICNVNHKPSNTKVDEKVEPKSCDKTHTCPPCPAPEAAGGPSVFLFPPKPKDTLMISRTPEVTCVVVDVSHEDPEVKFNWYVDGVEVHNAKTKPREEQYNSTYRVVSVLTVLHQDWLNGKEYKCKVSNKALGAPIEKTISKAKGQPREPQVCTLPPSRDELTKNQVSLSCAVKGFYPSDIAVEWESNGQPENNYKTTPPVLDSDGSFFLVSKLTVDKSRWQQGNVFSCSVMHEALHNHYTQKSLSLSP
heavy 2: not shown
notes: 2+1 T cell bispecific: light chain 1 is the crossed VH(CD3)-CL chain, light chain 2 the HLA-G light chain (two copies, CLM-00046); also called HLA-G TCB
Take B9: the EC50 (in general, the concentration giving half of the maximal effect) in test [11] is 1.5 nM. Moreover, in [12], the “T cell mediated cytotoxicity induction EC50 (nM), JEG3 (Caspase 8 activation)” value came to 12 nM and the “T cell mediated cytotoxicity induction EC50 (nM), SKOV3 HLA-G (Caspase 8 activation)” value is 1.4 nM. In test [13], the “IFNgamma induction EC50 (nM), JEG3” value was 20 nM and the “IFNgamma induction EC50 (nM), SKOV3 HLA-G” value is 30 nM. For the same molecule, the binding result in test [14] is listed as “binds”. The EC50 in test [15] amounted to 0.42 nM.

B10: P1AF7979 (HLA-G-0090-VL-S32P/CD3 V9) (bispecific antibody, human IgG1, kappa, L234A L235A)
light 1: EVQLVESGGGLVQPGGSLRLSCAASGYSFTGYTMNWVRQAPGKGLEWVALINPYKGVSTYNQKFKDRFTISVDKSKNTAYLQMNSLRAEDTAVYYCARSGYYGDSDWYFDVWGQGTLVTVSSASVAAPSVFIFPPSDEQLKSGTASVVCLLNNFYPREAKVQWKVDNALQSGNSQESVTEQDSKDSTYSLSSTLTLSKADYEKHKVYACEVTHQGLSSPVTKSFNRGEC
light 2: not shown
heavy 1: B9 heavy 1
heavy 2: not shown
notes: as for B9
As for B10, the EC50 in test [11] worked out at 0.58 nM. In test [12], the “T cell mediated cytotoxicity induction EC50 (nM), JEG3 (Caspase 8 activation)” value is 4.6 nM and the “T cell mediated cytotoxicity induction EC50 (nM), SKOV3 HLA-G (Caspase 8 activation)” value is 1 nM. In [13], the “IFNgamma induction EC50 (nM), JEG3” value is 29 nM and the “IFNgamma induction EC50 (nM), SKOV3 HLA-G” value came out at 16 nM. Besides, in test [14], the binding result is on record as “binds”. Besides, in [15], the EC50 was 0.36 nM.

B11: P1AF7978 (HLA-G-0090-VL-S32P/CD3 Clone 22 (Cl22)) (bispecific antibody, human IgG1, kappa, L234A L235A)
light 1: B9 light 1 with T28Q, A101H, S102T, N103T, A106S, F112Y, A113G
light 2: not shown
heavy 1: B9 heavy 1
heavy 2: not shown
notes: 2+1 T cell bispecific: light chain 1 is the crossed VH(CD3)-CL chain, light chain 2 the HLA-G light chain (two copies, CLM-00046); also called HLA-G-0090-VL-S32P/CD3 Cl22; HLA-G TCB
B11: in test [11], the EC50 came to 0.15 nM. Besides, in test [12], the “T cell mediated cytotoxicity induction EC50 (nM), JEG3 (Caspase 8 activation)” value was 2.6 nM and the “T cell mediated cytotoxicity induction EC50 (nM), SKOV3 HLA-G (Caspase 8 activation)” value was determined as 1.36 nM. For the same molecule, in test [13], the “IFNgamma induction EC50 (nM), JEG3” value came to 2.2 nM and the “IFNgamma induction EC50 (nM), SKOV3 HLA-G” value was determined as 2.6 nM. For the same molecule, the binding result in test [14] is “binds”. Besides, the EC50 in [15] came out at 0.12 nM.
